Laboratory results taken from publication PMC5093408.

Key:
[1] = biological target: HUSpm Lys35Thr mutant (Spiroplasma melliferum KC3); test: SEC; size-exclusion chromatography of the purified point mutants; conditions not given
[2] = biological target: HUSpm Asn92Lys mutant (Spiroplasma melliferum KC3); test: as above
[3] = biological target: HUSpm Phe14Ala mutant (Spiroplasma melliferum KC3); test: as above
[4] = biological target: HUSpm Phe29Ala mutant (Spiroplasma melliferum KC3); test: as above
[5] = biological target: histone-like HU protein from Spiroplasma melliferum KC3 (Spiroplasma melliferum KC3); test: crystal structure; hanging-drop vapour diffusion at 4 °C; protein 14 mg/ml in 20 mM Tris HCl pH 8.0, 200 mM NaCl, 5% glycerol; reservoir 0.1 M Tris HCl pH 8.0, 35% v/v PEG 400, 5% glycerol; one monomer per asymmetric unit, dimer by a crystallographic twofold axis; 1.4 Å
[6] = biological target: HUSpm Val17Thr mutant (Spiroplasma melliferum KC3); test: SEC; size-exclusion chromatography of the purified point mutants; conditions not given

Substance: HUSpm Lys35Thr mutant (natural protein)
- stoichiometry N [1]: 2

Substance: HUSpm Asn92Lys mutant (natural protein)
- stoichiometry N [2]: 2

Substance: HUSpm Phe14Ala mutant (natural protein)
- stoichiometry N [3]: 2

Substance: HUSpm Phe29Ala mutant (natural protein)
- stoichiometry N [4]: 2

Substance: histone-like HU protein from Spiroplasma melliferum KC3 (natural protein)
- stoichiometry N [5]: 2

Substance: HUSpm Val17Thr mutant (natural protein)
- stoichiometry N [6]: 2
